The values that follow come from US20240252795A1, “INGESTIBLE DEVICE FOR DELIVERY OF THERAPEUTIC AGENT TO THE GASTROINTESTINAL TRACT” (BIORA THERAPEUTICS, INC., priority 2018, published 2024).

A short description of the data set: Adalimumab plasma PK after ID administration via 4-nozzle jet delivery device. The data set is classed as in vivo, female Yorkshire pigs (Sus scrofa domesticus). The following applies: for AUC0-10 (±SEM) / Tmax: 40 mg, N=4, plasma; for AUC0-10 Corrected for Dose (±SEM): N=4; for Bioavailability over IV (±SEM): vs Example 5 IV control; for Bioavailability over IV (±SEM) / Bioavailability over SC (±SEM): AUC corrected for dose used; for Bioavailability over SC (±SEM): vs Example 5 SC control. How it is done:
A total of 9 healthy female Yorkshire pigs (Sus scrofa domesticus) having a body weight of 24-30 kg were used in this study. […] Each dose group received test article via intraduodenal (ID) administration. The study design is shown below in Table 21.
Animals were housed two per cage and fasted for a minimum of 12 hours prior to dosing. Food was returned at 4 hours post-dose. Water was supplied ad libitum. The dosing was as follows: Dose day 1: group 1 (n=2), and group 2 (n=3); Dose day 2: group 2 (n=3), and group 1 (n=2).
Intraduodenal (ID) administration was performed as follows.
Each blood sample was collected from the pig jugular vein, or other suitable vessel via direct venipuncture, placed into a chilled tube containing K2-EDTA as the anticoagulant, and inverted several times to mix. Blood samples were kept on wet ice until centrifugation. […] Plasma was collected into pre-labeled polypropylene tubes and placed in a freezer set to maintain −60 to −80° C. prior to analysis.
All plasma samples were diluted by 1:100 dilution. Diluted samples were processed in duplicates and the mean Optical Density (O.D.) was measured using a SpectraMax plate reader is and utilizing SoftMax Pro software for analysis. The Lower Limit of Quantification (LLOQ) was calculated by adding 10× the standard deviation value of the blanks O.D. to the average of the blank standard O.D. values. […] The area under the concentration curve (AUC) was calculated with the trapezoidal rules.
The PK results were compared to a subset of data from Example 5. The bioavailability was determined by comparison with Example 5 control arms (SC and IV administration).

Where [1] appears, read: Group 1: ID, 4 Nozzle device 320 PSIG.
The mark [2] stands for this setting: Group 2: ID, 4 Nozzle device 350 PSIG.

Usually Tmax stands for the time at which the peak concentration occurs. adalimumab: under setting [1], the “AUC0-10 (±SEM)” value amounted to 23.831 µg·days/mL, the time to peak (Tmax) was determined as 1 days, the “AUC0-10 Corrected for Dose (±SEM)” value came out at 23.997 µg·days/mL and the “Bioavailability over IV (±SEM)” value came out at 19.560. Moreover, the “Bioavailability over SC (±SEM)” value under setting [1] was 26.120. Moreover, under setting [2], the “AUC0-10 (±SEM)” value came to 14.603 µg·days/mL, the time of peak concentration (Tmax) worked out at 1 days, the “AUC0-10 Corrected for Dose (±SEM)” value was determined as 15.171 µg·days/mL and the “Bioavailability over IV (±SEM)” value is given as 12.367. Moreover, the “Bioavailability over SC (±SEM)” value under setting [2] was 16.513.
